Paper PMC4609182 (2015)

T1: Parkin R0RBR module (RING0, RING1, IBR, RING2), wild type (rat, UniProt Q9JK66 141-465)
T1 chain: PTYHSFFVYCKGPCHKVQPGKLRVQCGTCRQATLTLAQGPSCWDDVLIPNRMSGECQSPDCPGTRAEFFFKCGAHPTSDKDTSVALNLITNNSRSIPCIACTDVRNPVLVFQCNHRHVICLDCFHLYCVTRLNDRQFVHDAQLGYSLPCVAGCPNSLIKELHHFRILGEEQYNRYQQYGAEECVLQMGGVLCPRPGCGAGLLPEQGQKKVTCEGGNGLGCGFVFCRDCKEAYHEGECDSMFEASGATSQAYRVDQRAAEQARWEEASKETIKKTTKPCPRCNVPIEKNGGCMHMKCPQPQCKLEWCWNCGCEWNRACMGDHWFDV


What was measured:
[1] = target: Ub (Homo sapiens); test: ITC
[2] = target: T1, Parkin R0RBR module (RING0, RING1, IBR, …); test: ITC

Row | Binder | Kd [1] [µM] | Kd [2] [µM]
1 | Parkin R0RBR module (RING0, RING1, IBR, RING2), wild type (domain or fragment, unmodified (non-phosphorylated) ubiquitin; only the figure label 'Ub' is given, so wild type is assumed (the non-phosphorylatable control in Fig EV3B is a separate His-tagged UbS65A)) PTYHSFFVYCKGPCHKVQPGKLRVQCGTCRQATLTLAQGPSCWDDVLIPNRMSGECQSPDCPGTRAEFFFKCGAHPTSDKDTSVALNLITNNSRSIPCIACTDVRNPVLVFQCNHRHVICLDCFHLYCVTRLNDRQFVHDAQLGYSLPCVAGCPNSLIKELHHFRILGEEQYNRYQQYGAEECVLQMGGVLCPRPGCGAGLLPEQGQKKVTCEGGNGLGCGFVFCRDCKEAYHEGECDSMFEASGATSQAYRVDQRAAEQARWEEASKETIKKTTKPCPRCNVPIEKNGGCMHMKCPQPQCKLEWCWNCGCEWNRACMGDHWFDV | 41 | 
2 | Parkin Ubl domain (ubiquitin-like domain), unmodified (domain or fragment) MIVFVRFNSSYGFPVEVDSDTSIFQLKEVVAKRQGVPADQLRVIFAGKELQNHLTVQNCDLEQQSIVHIVQRPQRK |  | 14
